Source: publication PMC7296103, “Live Cell Imaging Demonstrates Multiple Routes Toward a STAT1 Gain-of-Function Phenotype” (Frontiers in Immunology, 2020)

Molecular target: the molecule itself
Experiment: raster image correlation spectroscopy (RICS), molecular brightness; living U3A cells after IFNγ (1 U/μl, 1 h), 37°C; nucleus; brightness as fold of cytoplasmic STAT1 WT; dimers to tetramers

B1: STAT1-GFP T419R (natural protein, UniProt P42224 1-750, looked up)
chain: MSQWYELQQLDSKFLEQVHQLYDDSFPMEIRQYLAQWLEKQDWEHAANDVSFATIRFHDLLSQLDDQYSRFSLENNFLLQHNIRKSKRNLQDNFQEDPIQMSMIIYSCLKEERKILENAQRFNQAQSGNIQSTVMLDKQKELDSKVRNVKDKVMCIEHEIKSLEDLQDEYDFKCKTLQNREHETNGVAKSDQKQEQLLLKKMYLMLDNKRKEVVHKIIELLNVTELTQNALINDELVEWKRRQQSACIGGPPNACLDQLQNWFTIVAESLQQVRQQLKKLEELEQKYTYEHDPITKNKQVLWDRTFSLFQQLIQSSFVVERQPCMPTHPQRPLVLKTGVQFTVKLRLLVKLQELNYNLKVKVLFDKDVNERNTVKGFRKFNILGTHTKVMNMEESTNGSLAAEFRHLQLKEQKNAGTRRNEGPLIVTEELHSLSFETQLCQPGLVIDLETTSLPVVVISNVSQLPSGWASILWYNMLVAEPRNLSFFLTPPCARWAQLSEVLSWQFSSVTKRGLNVDQLNMLGEKLLGPNASPDGLIPWTRFCKENINDKNFPFWLWIESILELIKKHLLPLWNDGCIMGFISKERERALLKDQQPGTFLLRFSESSREGAITFTWVERSQNGGEPDFHAVEPYTKKELSAVTFPDIIRNYKVMAAENIPENPLKYLYPNIDKDHAFGKYYSRPKEAPEPMELDGPKGTGYIKTELISVSEVHPSRLQTTDNLLPMSPEEFDEVSRIVGSVEFDSMMNTV
notes: Mutation reported in patients; also called STAT1T419R-eGFP; source: measured in living cells; not shown: eGFP, C-terminal, kept
- stoichiometry N: 2
